From PMC9643438

Experiments:
Cys290 = Cys290 (UniProt position 290, QETVDCLKKFN); assay: chemical modification (iodoacetamide alkylation) with mass spectrometry readout; settings: purified, reduced, native CaMKIIdelta; presence of Ca2+/calmodulin not stated
Cys273 = Cys273 (UniProt position 273, KHPWICQRSTV); assay: as above; settings: purified, reduced, native CaMKIIdelta; presence of Ca2+/calmodulin not stated

| Substance | pKa (Cys290) | pKa (Cys273) |
| --- | --- | --- |
| Calcium/calmodulin-dependent protein kinase II delta (CaMKIIdelta), 'Cys290' mutant (Homo sapiens; C7S;C273S;C481S) | 9.7 | – |
| Calcium/calmodulin-dependent protein kinase II delta (CaMKIIdelta), 'Cys273' mutant (Homo sapiens; C7S;C290S;C481S) | – | 7.4 |
